Experimental data taken from the supplement of paper PMC9732359.
± gives the uncertainty stated by the source.

Test: protein stability index of a GFP-peptide fusion (yeast GPS) (PSI 1-4); higher = more stable; sorted into four equal gates, so the index is relative within each strain
In short: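 Plasmids isolated from each sorting gate were PCR-amplified and Illumina-sequenced, and barcodes assigned the reads to strains. The gates, four of equal size, were set by GFP/Cherry fluorescence ratio on mid-log cultures in leucine-free medium. These cultures were yeast carrying a pooled library of tiled 17-residue yeast protein peptides fused downstream of GFP on a plasmid that also expresses Cherry. The protein stability index is the sum of every gate's read frequency times its gate number.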

Sequence | protein stability index (doa10∆) | protein stability index (pdr5∆) | protein stability index (san1∆) | protein stability index (ubr1∆)
NDQDMFTIVSLVQLKKF [YML103C/NUP188] | 2.18 ± 0.12 | 2.84 ± 0.11 | 1.93 ± 0.17 | 2.04 ± 0.14
TKVLQFAAKQRQELQMQ [SNF2] | 2.3 ± 0.12 | 2.71 ± 0.076 | 2.51 ± 0.059 | 2.31 ± 0.083
AISLGLLKGSIDQVNEL [RPN9] | 3.36 ± 0.098 | 3.08 ± 0.066 | 3.16 ± 0.095 | 3.21 ± 0.039
EHSQVEQTCVKLLDSGC [SRP72] | 3.15 ± 0.068 | 3.38 ± 0.083 | 3.11 ± 0.085 | 3.34 ± 0.063
YGHVFLGITGLATDVTT [PUP3] | 1.93 ± 0.13 | 2.24 ± 0.098 | 2.25 ± 0.15 | 2.29 ± 0.1
LFGNKPTTTTGGLFGNS [YGR119C/NUP57] | 2.94 ± 0.1 | 2.79 ± 0.13 | 2.85 ± 0.18 | 3.19 ± 0.055
TRYNRDYMLSMANIPER [SNU114] | 1.48 ± 0.073 | 2.44 ± 0.055 | 2.62 ± 0.1 | 1.43 ± 0.047
PFLLMELHKKLVEAAKL [YDL116W/NUP84] | 1.41 ± 0.11 | 1.13 ± 0.093 | – | 1.25 ± 0.13
KTRVGSVTAQVYKIALR [RPC82] | 1.27 ± 0.11 | 1.49 ± 0.068 | 1.5 ± 0.16 | 1.15 ± 0.12
IAATQDFITGSYLISHK [RPO31] | 3.03 ± 0.083 | 3.14 ± 0.085 | 2.83 ± 0.093 | 3.13 ± 0.038
WADNYERKEQEEKEKEQ [BRN1] | 3.47 ± 0.21 | – | 3.49 ± 0.11 | 3.46 ± 0.14
MSTESALSYAALILADS [RPP1A] | 1.75 ± 0.062 | 1.97 ± 0.073 | 1.72 ± 0.073 | 1.83 ± 0.046
LARGLRESTKALTRGEA [RPS12] | 3.28 ± 0.14 | 3.65 ± 0.12 | 2.94 ± 0.24 | 3.37 ± 0.044
RGRSVMKESVVEINSSE [ESC2] | 3.15 ± 0.11 | 2.83 ± 0.14 | 3.09 ± 0.17 | 2.98 ± 0.1
FGRKKRKGGPATAEKLP [RPT2] | 3.56 ± 0.089 | 3.28 ± 0.12 | 3.24 ± 0.075 | 3.34 ± 0.11
AVNMTQNIMTLPDGKNG [MED6] | 2.79 ± 0.11 | 3.04 ± 0.056 | 2.67 ± 0.059 | 3.07 ± 0.062
TKYSAKYAQDGAGIERE [RPL3] | 3.04 ± 0.15 | 3.48 ± 0.22 | 3.24 ± 0.27 | 3.19 ± 0.15
KERLTKEAAAVAEGKSK [RPL8A] | 3.53 ± 0.16 | 2.74 ± 0.22 | 3.31 ± 0.15 | 3.1 ± 0.16
DLKFEPQGRQSTTFADC [RPC40] | 3.37 ± 0.19 | 3.3 ± 0.29 | – | 3.15 ± 0.075
LLDDKKLMDEDSVATVI [YJR042W/NUP85] | 3.06 ± 0.15 | 2.91 ± 0.21 | 2.87 ± 0.14 | –
KYRKRQLVTREAQIKDW [FAS2] | 2.81 ± 0.27 | 2.86 ± 0.15 | 2.93 ± 0.24 | 3.22 ± 0.11
MHRPVHFLQFSELAGDE [PRP8] | 3.23 ± 0.081 | 3.15 ± 0.084 | 2.88 ± 0.059 | 3.05 ± 0.06
LPPEKIYSPLHSFIKML [SIR2] | 1.65 ± 0.034 | 1.88 ± 0.032 | 1.72 ± 0.05 | 1.71 ± 0.032
EDLLHYIEEKHPTIYES [POP4] | 3.47 ± 0.078 | 3.4 ± 0.093 | 3.37 ± 0.077 | 3.27 ± 0.084
PLEKITDAYLDQYLWYE [PRP8] | 3.19 ± 0.13 | 3.36 ± 0.18 | 3.03 ± 0.18 | 3.18 ± 0.12
TQLQRGGTSDMNYLLDN [CSI1] | 2.89 ± 0.097 | 2.82 ± 0.14 | 3.2 ± 0.078 | 3.02 ± 0.078
